Test results published in the supplement of paper PMC6755084.

B1: F1*; the commonest letter at each place (parent)
chain: GAGACCGCAACTGAAAAGTTGTTATCACTTGTCGTAAGACACTTTGGATGGGTTGAAGTTCTGCACGTAGAAGCAAAAGGC

Variants of: B1
Assay: fraction ligated after 30 min (ligated reads / total reads); higher = more ligase activity
Details: with F1*sub RNA substrate (template-directed ligation), 42 °C
Method in brief: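 Oligo-pool templates of ligase ribozyme variants were PCR-amplified, T7-transcribed and gel-purified. Ligated and unligated bands were gel-separated, reverse transcribed with barcoded primers, and MiSeq-sequenced; core bases were filtered at quality ≥20. Fraction ligated per variant was ligated reads over total reads.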

Variant	fraction ligated
A37T G46C	0.8
A39G	0.839
A39C	0.832
A39C T44G	0.801
A39C T44A	0.799
A39C T44C	0.797
A39G G55A	0.844
A39G G55C	0.801
G38A C42G	0.837
G38A C42T	0.87
G38A C42A	0.854
G38T G47C	0.114
G38T G47T	0.139
G38T G47A	0.762
A39C G47C	0.349
A39C G47A	0.757
A39C G47T	0.3
G38C A57G	0.87
G38C A57T	0.828
G38C A57C	0.824
A39G G50T	0.789
A39G G50A	0.671
A39G G50C	0.507
G38C A39C	0.752

Variant	fraction ligated
G38C A39G	0.811
G38C A39T	0.806
G38A T44A	0.838
G38A T44C	0.818
G38A T44G	0.848
G38C G55A	0.826
G38C G55T	0.768
G38C G55C	0.321
A37T G50T	0.793
A37T G50A	0.602
A37T G50C	0.388
G38C T44A	0.845
G38C T44G	0.839
G38C T44C	0.819
G38A A57T	0.819
G38A A57G	0.855
G38A A57C	0.825
G38T G50A	0.386
G38T G50C	0.134
G38T G50T	0.723
G38T T43G	0.773
G38T T43A	0.808
G38T T43C	0.814
G38C T45G	0.0325

Variant	fraction ligated
G38C T45C	0.0602
G38C T45A	0.551
A37G T43A	0.867
A37G T43G	0.814
A37G T43C	0.853
A37T T43C	0.806
A37T T43A	0.848
A37T T43G	0.804
A37C T45G	0.415
A37C T45C	0.778
A37C T45A	0.78
A39C C40A	0.797
A39C C40T	0.784
A39C C40G	0.811
A37C G50C	0.439
A37C G50T	0.787
A37C G50A	0.616
A37G A48T	0.799
A37G A48G	0.795
A37G A48C	0.763
G38C T43C	0.822
G38C T43A	0.825
G38C T43G	0.812
G38T T44C	0.831

Variant	fraction ligated
G38T T44A	0.823
G38T T44G	0.828
G38A A41T	0.793
G38A A41C	0.782
G38A A41G	0.765
G38T G46A	0.801
G38T G46C	0.787
G38T G46T	0.782
A37G C40G	0.829
A37G C40T	0.854
A37G C40A	0.807
A39C T43G	0.79
A39C T43C	0.815
A39C T43A	0.822
G38C G50C	0.0192
G38C G50A	0.101
G38C G50T	0.314
A39C G50T	0.503
A39C G50C	0.123
A39C G50A	0.292
A37T C40G	0.82
A37T C40A	0.809
A37T C40T	0.842
G38C A48T	0.0108

Variant	fraction ligated
G38C A48G	0.53
G38C A48C	0.269
G38A A48G	0.796
G38A A48C	0.766
G38A A48T	0.252
A39C A48C	0.0845
A39C A48T	0.465
A39C A48G	0.776
A39G A48T	0.824
A39G A48G	0.814
A39G A48C	0.766
G38C C42T	0.841
G38C C42A	0.857
G38C C42G	0.843
G38A G47T	0.324
G38A G47C	0.163
G38A G47A	0.796
A39C G46C	0.764
A39C G46T	0.776
A39C G46A	0.802
A39C A56C	0.746
A39C A56T	0.771
A39C A56G	0.779
G38A G55T	0.811

Variant	fraction ligated
G38A G55A	0.838
G38A G55C	0.781
G38T G55C	0.781
G38T G55A	0.823
G38T G55T	0.798
G38T A57C	0.811
G38T A57T	0.812
G38T A57G	0.862
A37T A57G	0.842
A37T A57T	0.838
A37T A57C	0.854
G38T T49G	0.76
G38T T49A	0.757
G38T T49C	0.204
A39G G47A	0.795
A39G G47T	0.389
A39G G47C	0.343
G38T A48C	0.757
G38T A48T	0.129
G38T A48G	0.792
G38C A56T	0.813
G38C A56C	0.209
G38C A56G	0.7
A37G T44C	0.869

Variant	fraction ligated
A37G T44G	0.85
A37G T44A	0.839
A37C G55A	0.837
A37C G55T	0.845
A37C G55C	0.826
A39C C42A	0.842
A39C C42T	0.827
A39C C42G	0.834
G38C A41T	0.785
G38C A41C	0.807
G38C A41G	0.793
A37T G55C	0.8
A37T G55T	0.828
A37T G55A	0.862
A37C T49A	0.778
A37C T49G	0.797
A37C T49C	0.737
A39G A56T	0.781
A39G A56C	0.787
A39G A56G	0.792
G38A T45C	0.696
G38A T45A	0.773
G38A T45G	0.0379
